B1: PA3774 (Pseudomonas aeruginosa PAO1) (protein)
chain: MTRRTAFFFDELCLWHAAGPHALTLPVGGWVQPPAAAGHAESPETKRRLKSLLDVSGLTARLQLRSAPPASDEDLLRVHPAHYLERFKALSDAGGGSLGQDAPIGPGSYEIARLSAGLAIAALDAVLAGEADNAYSLSRPPGHHCLPDQAMGFCFFANIAVAIEAAKARHGVERVAVLDWDVHHGNGTQAIYYRRDDVLSISLHQDGCFPPGYSGAEDIGEDRGRGFNLNVPLLPGGGHDAYMQAMQRIVLPALERFRPQLIVVASGFDANAVDPLARMQLHSDSFRAMTAMVRDAAERHAGGRLVVVHEGGYSEAYVPFCGLAVIEELSGVRSAVRDPLRDFIELQQPNAAFRDFQRQRLEELAAQFGLCPAQPLQAAR
B2: PA0321 (Pseudomonas aeruginosa PAO1) (protein)
chain: MLTIYSDDHRLHHGRHELIGGQFTPCFEKPSRADMVLDRVKAVGLGEVRAPRDFGLEPIRRVHSEGFVRFLQNAWQDWLATGRSHDMLPIAWPTRRLRQTEPDNIDGRLGYYSFDAGAPITAGTWQAITSSANVALSGQSELANGARSVFSLCRPPGHHAAADYMGGYCFFNNAAIAAQAFLDRGAGRVAILDVDYHHGNGTQDIFYDRADVLFTSIHGDPRFEYPYFLGYADEKGNGVGTGYNFNYPLAAGSDWATWSQALQAAIRQIQAYAADALIVSLGVDTFKEDPISQFRLDSPDYLRMGEAIGKLGLATLFVMEGGYAVEEIGINAVNVLQGFEGVHR
notes: recombinant, E. coli expressed, produced as described before [30]
B3: PA1409 (Pseudomonas aeruginosa PAO1) (protein)
chain: MLSVYSDDHRLHFGQSELVDGKLQPCFEMPSRADTVLARVKSQNLGEVIAPKDFGREPLLRLHDAAYLDFLQGAWARWTAEGHSGDLVSTTFPGRRLRRDGPIPTALMGELGYYSFDTEAPITAGTWQAIYSSAQVALTAQEHMRQGARSAFALCRPPGHHAGGDFMGGYCFLNNAAIATQAFLDQGARRVAILDVDYHHGNGTQDIFYRRDDVLFASIHGDPRVEYPYFLGYADERGEGAGEGCNHNYPLAHGSGWDLWSAALDDACVRIAGYAPDALVISLGVDTYKEDPISQFRLDSPDYLRMGERIARLGLPTLFIMEGGYAVEAIGINAVNVLQGYEGAAR
notes: as for B2

Legend:
[1] = system: CC(=O)NCCCC[C@H](NC(=O)OC(C)(C)C)C(=O)Nc1ccc2c(C)cc(=O)oc2c1; test: purified protein; conditions: pH 8, 30 °C, 20 mM Tris-HCl, 50 mM NaCl
[2] = system: Cc1cc(=O)oc2cc(NC(=O)[C@H](CCCCNC(=O)C(F)(F)F)NC(=O)OC(C)(C)C)ccc12; test: purified protein; conditions: pH 8, 30 °C, 20 mM Tris-HCl, 50 mM NaCl
[3] = substrate: Cc1cc(=O)oc2cc(NC(=O)[C@H](CCCCNC(=O)C(F)(F)F)NC(=O)OC(C)(C)C)ccc12; test: purified protein; conditions: pH 8, 30 °C, 20 mM Tris-HCl, 50 mM NaCl; remark: listed apart in the source
[4] = substrate: CC(=O)NCCCCCN; test: diamine oxidase coupled colorimetric assay; format: biochemical, Pseudomonas aeruginosa; conditions: pH 7.4, 21 °C, 100 mM HEPES
Description: (§1) diamine oxidase coupled colorimetric assay on PA0321

[5] = substrate: CC(=O)NCCCCN; test: diamine oxidase coupled colorimetric assay; format: biochemical, Pseudomonas aeruginosa; conditions: pH 7.4, 21 °C, 100 mM HEPES
Description: as §1

[6] = substrate: CC(=O)NCCCCCN; test: diamine oxidase coupled colorimetric assay; format: biochemical, Pseudomonas aeruginosa; conditions: pH 7.4, 21 °C, 100 mM HEPES; remark: listed apart in the source
Description: (§2) diamine oxidase coupled colorimetric assay on PA1409

[7] = substrate: CC(=O)NCCCCN; test: diamine oxidase coupled colorimetric assay; format: biochemical, Pseudomonas aeruginosa; conditions: pH 7.4, 21 °C, 100 mM HEPES; remark: listed apart in the source
Description: as §2

| Molecule | Km [1] | Km [3] | further results |
| --- | --- | --- | --- |
| PA3774 (Pseudomonas aeruginosa PAO1) | 95 ± 7 µM | – | – |
| PA0321 (Pseudomonas aeruginosa PAO1) | 22 ± 10 µM | – | – |
| PA1409 (Pseudomonas aeruginosa PAO1) | 223 ± 12 µM | – | – |
| HDAH (Alcaligenaceae bacterium FB188) | 26 ± 4 µM | – | Km [2]: 7.2 ± 1.1 µM; Vmax [2]: 0.0138 µmol/min/mg; Vmax [1]: 0.0258 µmol/min/mg |
| B1 | – | 21 ± 2 µM | – |
| B2 | – | 11 ± 1 µM | Km [4]: 284 ± 39 µM; Km [5]: 411 ± 34 µM |
| B3 | – | 84 ± 15 µM | Km [6]: 465 ± 53 µM; Km [7]: 503 ± 60 µM |
